Measured values from paper PMC10980356 (The Plant Cell, 2023).

T1: MLO2-NLuc (A. thaliana, UniProt Q9SXB6 1-573)
T1 sequence: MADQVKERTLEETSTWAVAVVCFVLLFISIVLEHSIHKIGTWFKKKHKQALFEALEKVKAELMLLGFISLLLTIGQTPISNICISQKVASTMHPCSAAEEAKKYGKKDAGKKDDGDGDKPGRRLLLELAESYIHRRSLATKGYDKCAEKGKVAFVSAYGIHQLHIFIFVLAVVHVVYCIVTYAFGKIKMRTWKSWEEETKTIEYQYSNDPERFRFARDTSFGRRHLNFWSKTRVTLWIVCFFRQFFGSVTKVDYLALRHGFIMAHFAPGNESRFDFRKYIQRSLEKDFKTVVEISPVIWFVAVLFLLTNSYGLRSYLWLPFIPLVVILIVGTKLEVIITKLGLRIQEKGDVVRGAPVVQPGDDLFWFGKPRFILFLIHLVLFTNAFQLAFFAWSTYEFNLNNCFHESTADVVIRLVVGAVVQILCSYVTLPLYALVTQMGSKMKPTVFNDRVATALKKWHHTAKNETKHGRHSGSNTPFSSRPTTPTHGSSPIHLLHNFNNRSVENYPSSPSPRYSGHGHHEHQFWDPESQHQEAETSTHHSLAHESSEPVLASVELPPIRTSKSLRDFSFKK

T2: MLO6-NLuc (A. thaliana, UniProt Q94KB7 1-583)
T2 sequence: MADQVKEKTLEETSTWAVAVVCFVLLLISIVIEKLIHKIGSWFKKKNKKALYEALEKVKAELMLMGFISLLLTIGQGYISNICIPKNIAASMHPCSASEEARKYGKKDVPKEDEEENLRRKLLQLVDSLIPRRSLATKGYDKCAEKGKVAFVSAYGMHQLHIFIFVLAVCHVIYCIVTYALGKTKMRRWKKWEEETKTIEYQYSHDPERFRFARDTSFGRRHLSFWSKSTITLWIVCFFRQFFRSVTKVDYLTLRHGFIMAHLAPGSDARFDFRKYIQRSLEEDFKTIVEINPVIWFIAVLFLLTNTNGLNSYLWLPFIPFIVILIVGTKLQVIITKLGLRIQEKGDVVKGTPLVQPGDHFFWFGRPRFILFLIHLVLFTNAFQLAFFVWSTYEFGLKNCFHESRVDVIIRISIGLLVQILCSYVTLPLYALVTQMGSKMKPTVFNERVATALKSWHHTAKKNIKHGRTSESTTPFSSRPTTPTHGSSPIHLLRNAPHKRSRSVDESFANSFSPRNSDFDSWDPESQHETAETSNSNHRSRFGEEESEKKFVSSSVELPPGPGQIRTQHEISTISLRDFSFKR

T3: MLO12-NLuc (A. thaliana, UniProt O80961 1-576)
T3 sequence: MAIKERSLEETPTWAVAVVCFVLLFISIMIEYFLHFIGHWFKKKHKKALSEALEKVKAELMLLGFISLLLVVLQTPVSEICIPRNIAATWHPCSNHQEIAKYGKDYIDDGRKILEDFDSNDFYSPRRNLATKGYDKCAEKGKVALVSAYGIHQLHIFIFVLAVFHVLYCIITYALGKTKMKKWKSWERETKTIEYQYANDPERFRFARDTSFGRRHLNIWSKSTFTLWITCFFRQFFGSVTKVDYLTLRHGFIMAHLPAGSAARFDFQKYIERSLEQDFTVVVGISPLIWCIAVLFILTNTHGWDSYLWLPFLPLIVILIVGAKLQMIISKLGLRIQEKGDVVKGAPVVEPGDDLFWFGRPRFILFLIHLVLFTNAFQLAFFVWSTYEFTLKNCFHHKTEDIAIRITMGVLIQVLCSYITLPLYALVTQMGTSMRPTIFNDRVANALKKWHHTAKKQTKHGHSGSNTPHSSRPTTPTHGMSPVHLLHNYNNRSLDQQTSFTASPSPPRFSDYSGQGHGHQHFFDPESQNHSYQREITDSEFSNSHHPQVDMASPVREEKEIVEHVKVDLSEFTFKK

B1: CLuc-EXO70H4 (natural protein)
chain: MMTRKAMINICCVATTPSKYPPPPPLTLTPRQSLESAAIYGVIESAADIIERWNTETNTFAKVTCMFYENKPEAMMFIERVKDLQKTMDVLVSEDPNSERLLRSHKLMQIAMKRLQKEFYQILSMNRAYLDPESVSTRSSLTSARSSYSDFPDYVEDLDTIIELEEVSTNVMTDLKSIAECMIGSGYAKECLSIYKSIRKSIIDEGIYRLEVEKTSTGKVKKMSWEVMELKIRSWLKAVKVSMETLFKGEKILCDHVFESSDAIRESCFSDISRDGALLLFGFPEIINTKTSKKHSPPEKVFRLLDMYTAIAGNWQAIESIFSFDSISVVRSLALKSLISLSESIRSLLVEFESGIQKDSSKVVVPGGGVHPLTISVMDHLSLLADYSNVLVDILAGSPPPDRSLLPESYFNVSESDDSPSSELTIRFAWIILVLLCKIDRKSIHYKDFSIQYLFLTNNLQHVVSRARSSNLKNLLGEDWITRHFAKMRQFAGSYKRLAWGPVVATLPENRTVEMTPEEVKERFEKFSESFENAYSKHSVCVVADPNIRDEIKVSISRKLVPIYREFYNTRGSVILGEGDGARNLNSVVRFTPEDIENYLSDLFREKGSSGNSSASSPSSCRSRQSMS
B2: CLuc-EXO70H1 (natural protein)
chain: MAKMAKFSFFSSSSPKYHPSSPSSFTSFPASPLNQNFTQAMMEETVETADSVIRKWDPNTPSFTKIVSLFNHSRKEAKEFIRCVRDLRRAMHFLVSQDSQSPKLALAQTLMQIAMARLEKEFFQILSSNRDKLDPESVSGQSSISSNSEFEDVMGSDDDDESDNEMRKAGESITQVEKASAMVMSDLKAIAESMISCGYGKECVKIYKRVRKSIVDEGLSLLGIEIYKGSRFHRTDWVTLEHMIKNWIKAAKIGIATLFRGEKLLCDHVFSASNSTRESCFYEIANEAATNLFKFPEFVAKEKKSHERIFPLMDLQAAISDLWQDIEMIFHFDAVAGVKSQALTSLQKLKVSIHSALTDFESIIQKDTTKALTPGGGIHKLTRSTMNFISSLSKYSGVLSEILADHPLPRNTRLLESYVRAPISEDEQHNHALSVHFAWLILVLLCKLDTKAEHYKDVSLSYLFLANNLQIIIETVGSTPLRNLLGDDWLNKHEDKLCAYAGNYEIAAWSNVFMSLPEEPTDLSPEEAKIYFRRFHTAFEEAYMKQSSRVVPNAKLRDELKVSIAKKLVPEYREFYRKYLPMLGQERNIEILVRFKPDNLENYISDLFHGTPIHASSSFSSSSSSSSWKSLGCVSG
B3: CLuc-EXO70B2 (natural protein)
chain: MAEAGDENLYAAARDIARALGKDPSAAGDILQILSGYGASGNRGGDPRPTPSRGGSNVNFDRALTSLERQISSYIVEDRPIWSDPVDSRTFLDSVDELLAIAGDLRSMAGDKSVAVCQSRADELIQQVMFRLQEEFGFVMDRAPDSFDSDDEFPGEEDNDTSDGVIVARPITDYKIVIEALQSSVIGDLNAIAVRMVAGGFAKECSRVYSSRRREFLEESLSRLHLRGLSMEEVQESPWQDLEDEIDRWIKAVTLIFHVFFPSERLLCDRVFSDLPVSSVTDLSFMEVCRGTTTQLLNFADAIALGSRLPERLFKVVDLYEAMQDLIPKMETLFSDRYCSPLRHEALAIHKRLGEAIRGIFMELENLIRRDPPKTAFPGGGIHPITRYVMNYLRAACKSRQSLEQILDQTGNETGSDTRPLSVQIIWVLELLESNLEGKKRTYRDPSLCFLFMMNNDKYILDKAKDNELGLVLGEDWIVKHAAKLRQYHSNYRRSSWNQVVGLLRTDGPYPKLVENLRLFKSQFDEVCKVQSQWVVSDGQLREELRSSVAGIVSPAYSNFIRRLKESPEINGRRGEPFIPYTVEDVEFIIKRLFKESSS

Experiments:
Assay in all cases: split reporter
[1] = target: T1, MLO2-NLuc
[2] = target: T2, MLO6-NLuc
[3] = target: T3, MLO12-NLuc

Binder	relative luminescence (in relation to the calmodulin positive control) [1]	relative luminescence (in relation to the calmodulin positive control) [2]	relative luminescence (in relation to the calmodulin positive control) [3]
B1	~0.4	~0.67	–
B2	~0.39	–	~0.37
B3	~0.56	–	–
